{
  "source": "paper PMC3156093",
  "binders": {"B1": {"name": "30 bp specific site oligonucleotide (dsDNA)", "DNA 1": "CGGGCCTCTTGCGGGATATCGTCCATTCCG", "DNA 2": "CGGAATGGACGATATCCCGCAAGAGGCCCG"}},
  "target": "EcoRV restriction endonuclease (UniProt P04390 1-245)",
  "sequence (P04390 whole entry)": "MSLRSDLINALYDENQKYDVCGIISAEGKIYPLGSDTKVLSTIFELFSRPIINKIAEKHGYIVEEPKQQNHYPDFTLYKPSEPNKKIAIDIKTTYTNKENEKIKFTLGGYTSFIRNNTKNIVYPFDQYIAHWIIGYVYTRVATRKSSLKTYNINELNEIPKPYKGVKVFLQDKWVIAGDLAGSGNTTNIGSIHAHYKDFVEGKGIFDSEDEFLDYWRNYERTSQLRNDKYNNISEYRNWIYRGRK",
  "experiment": "competition",
  "data": [
    {"binder": "B1", "values": [
      {"measurement": "binding signal", "value": "< 9 % N1 complex remaining at 30-fold excess competitor"}
    ]}
  ]
}
